The values that follow come from patent US20250066499A1 (SUNSHINE GUOJIAN PHARMACEUTICAL SHANGHAI, published 2025).

What all share (test): ELISA, biotinylated antigen on streptavidin plate
On the technique in general: In an ELISA, binding on a coated surface is turned into a signal by an enzyme label.

For one assay, the target named is T1, CD73-ND-N187A (human, UniProt P21589 27-317).
T1 construct: Alanine mutant of CD73-ND
T1 sequence: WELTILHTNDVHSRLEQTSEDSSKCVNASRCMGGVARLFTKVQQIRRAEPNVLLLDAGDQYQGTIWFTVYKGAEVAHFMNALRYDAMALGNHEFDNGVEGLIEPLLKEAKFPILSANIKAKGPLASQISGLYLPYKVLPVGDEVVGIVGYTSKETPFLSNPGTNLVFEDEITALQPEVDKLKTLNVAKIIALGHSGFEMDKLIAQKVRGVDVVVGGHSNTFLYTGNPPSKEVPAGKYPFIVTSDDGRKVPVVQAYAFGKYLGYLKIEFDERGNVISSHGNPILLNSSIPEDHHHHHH
On the procedure:
(§1) The ELISA plates were coated with SA protein diluted to 1.5 μg/mL in coating buffer (50 mM carbonate coating buffer, pH 9.6) and incubated overnight at 4° C. The supernatant was discarded, and the plates were washed three times with PBST. Then, 5% skimmed milk powder prepared with PBS was added for blocking and the plates were incubated for 2 h at 37° C. After washing the plates once with PBST, CD73-biotin protein (prepared by biotinylating CD73-His protein according to the EZ-Link NHS-Biotin Reagent instructions) was diluted to 0.5 μg/mL and added at 100 μL/well for incubation at room temperature for 1 h. The plates were washed three times with PBST, and the prepared murine-derived monoclonal antibodies against human CD73 were serially diluted with 1% BSA buffer prepared with PBST and added to the ELISA plates at 100 μl/well. The plates were incubated at 37° C. for 1 h. After washing the plates three times with PBST, HRP-labeled goat anti-mouse IgG secondary antibody was added and the plates were incubated for 30 min at 37° C. After washing the plates three times with PBST, the residual droplets were patted dry on absorbent paper as much as possible. Then, 100 μl of TMB color developing solution was added to each well, and the plates were incubated in the dark at room temperature for 5 min for color development. Subsequently, 50 μl of 2M H₂SO₄ stop solution was added to each well to terminate the substrate reaction. The OD values were read at 450 nm using a multimode microplate reader to analyze the binding ability of the tested antibodies to the target antigen human CD73-His.
(§2) Referring to the experimental method in Example 3, the affinity of 48A11-HuV33 for various mutant proteins of CD73-ND was determined. The SA protein was diluted to 1 μg/mL for coating the ELISA plates, and the biotinylated CD73 protein (CD73-biotin) was used at a concentration of 0.1 μg/mL.

In the next assay the target is T2, CD73-ND-V186A (human, UniProt P21589 27-317).
T2 construct: Alanine mutant of CD73-ND
T2 sequence: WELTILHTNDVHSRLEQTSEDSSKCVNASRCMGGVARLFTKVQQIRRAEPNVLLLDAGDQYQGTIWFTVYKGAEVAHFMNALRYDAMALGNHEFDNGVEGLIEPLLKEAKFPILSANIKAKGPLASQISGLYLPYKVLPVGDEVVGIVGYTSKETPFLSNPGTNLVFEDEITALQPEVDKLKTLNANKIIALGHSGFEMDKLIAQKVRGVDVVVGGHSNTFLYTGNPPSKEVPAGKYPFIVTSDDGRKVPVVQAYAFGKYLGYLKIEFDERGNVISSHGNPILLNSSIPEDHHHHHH
On the procedure:
as §1, §2

A further assay has as its target T3, CD73-ND-his (human, UniProt P21589 27-317).
T3 construct: Biotinylated and captured on streptavidin in the ELISA
T3 sequence: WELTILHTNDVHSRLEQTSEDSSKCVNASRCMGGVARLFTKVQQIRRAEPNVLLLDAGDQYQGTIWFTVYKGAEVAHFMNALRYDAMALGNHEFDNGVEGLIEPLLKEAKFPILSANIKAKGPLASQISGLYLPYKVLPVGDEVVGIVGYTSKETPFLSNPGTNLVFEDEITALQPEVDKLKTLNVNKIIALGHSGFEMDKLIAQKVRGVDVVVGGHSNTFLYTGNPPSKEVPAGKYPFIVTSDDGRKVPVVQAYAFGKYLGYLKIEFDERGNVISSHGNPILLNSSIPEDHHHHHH
As for the experimental part: as §1, §2

The target of a further assay is T4, CD73-ND-K136A (human, UniProt P21589 27-317).
T4 construct: Alanine mutant of CD73-ND
T4 sequence: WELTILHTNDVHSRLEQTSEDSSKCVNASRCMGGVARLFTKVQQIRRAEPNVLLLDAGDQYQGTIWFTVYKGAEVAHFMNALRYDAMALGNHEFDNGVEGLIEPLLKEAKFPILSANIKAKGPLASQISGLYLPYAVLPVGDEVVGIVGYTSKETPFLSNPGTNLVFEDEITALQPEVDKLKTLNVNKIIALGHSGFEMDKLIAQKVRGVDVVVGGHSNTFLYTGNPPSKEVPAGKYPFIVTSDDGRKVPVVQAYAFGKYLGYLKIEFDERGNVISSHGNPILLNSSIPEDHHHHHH
As for the experimental part:
as §1, §2

The next assay has as its target T5, CD73-ND-Y135A (human, UniProt P21589 27-317).
T5 construct: Alanine mutant of CD73-ND
T5 sequence: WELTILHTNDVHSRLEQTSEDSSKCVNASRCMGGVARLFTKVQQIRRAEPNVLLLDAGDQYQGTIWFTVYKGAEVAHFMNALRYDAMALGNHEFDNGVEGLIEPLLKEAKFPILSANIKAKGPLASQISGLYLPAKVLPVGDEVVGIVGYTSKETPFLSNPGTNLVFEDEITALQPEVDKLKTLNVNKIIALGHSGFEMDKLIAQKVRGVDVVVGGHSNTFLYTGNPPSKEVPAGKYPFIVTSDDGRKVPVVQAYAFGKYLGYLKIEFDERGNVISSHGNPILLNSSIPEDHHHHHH
On the procedure: as §1, §2

In the next assay the target is T6, CD73-ND-Y132A (human, UniProt P21589 27-317).
T6 construct: Alanine mutant of CD73-ND
T6 sequence: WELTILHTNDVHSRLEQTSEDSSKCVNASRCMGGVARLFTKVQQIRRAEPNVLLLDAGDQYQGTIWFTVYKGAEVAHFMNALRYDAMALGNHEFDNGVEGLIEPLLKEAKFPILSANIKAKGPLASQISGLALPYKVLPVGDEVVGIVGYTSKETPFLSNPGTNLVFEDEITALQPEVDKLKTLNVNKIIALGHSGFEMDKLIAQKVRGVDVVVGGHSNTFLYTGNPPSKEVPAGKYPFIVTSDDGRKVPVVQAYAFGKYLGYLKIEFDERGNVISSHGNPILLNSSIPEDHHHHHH
On the procedure: as §1, §2

B1: 48A11-HuV33 (antibody, human IgG4, V domains shown)
VH: QVQLVQSGAEVKKPGASVKVSCKASGYTFTSYWMHWVRQAPGQGLEWIGEINPSIGRTNYNEKFKSRVTLTRDTSTSTAYMELSSLRSEDTAVYYCARRVYGTMDYWGQGTLVTVSS
VL: DIQMTQSPSSLSASVGDRVTITCKASQDINSYLSWFQQKPGKSPKLLIYRANIWVDGVPSRFSGSGSGQDYTFTISSLQPEDIATYYCLQYDELYTFGQGTKVEIK
notes: Humanized
Usually EC50 stands for the midpoint of the concentration-response curve. Turning to B1, the concentration giving a half-maximal response (EC50) is 0.105 nM with CD73-ND-N187A; 0.16 nM with CD73-ND-V186A; 0.091 nM with CD73-ND-his; 0.145 nM with CD73-ND-K136A; 0.165 nM with CD73-ND-Y135A; 10.5 nM with CD73-ND-Y132A.
